The nature of this data set: self-splicing fitness, log relative to wild type (ln ratio); higher = more splicing; Tetrahymena group I intron in knt gene, E. coli kanamycin selection, DiMSum; sequences stand for … in CUCUCU…GGAGGGAAAAGUUAUCAGGCAUGCACCUGGUAGCUAGUCUUUAAACCAAUAGAUUGCAUCGGUUUAAAAGGCAAGACCGUCAAAUUGCGGGAAAGGGGUCAACAGCCGUUCAGUACCAAGUCUCAGGGGAAACUUUGAGAUGGCCUUGCAAAGGGUAUGGUAAUAAGCUGACGGACAUGGUCCUAACCACGCAGCCAAGUCCUAAGUCAACAGAUCUUCUGUUGAUAUGGAUGCAGUUCACAGACUAAAUGUCGGUCGGGGAAGAUGUAUUCUUCUCAUAAGAUAUAGUCGGACCUCUCCUUAAUGGGAGCUAGCGGAUGAAGUGAUGCAACACUGGAGCCGCUGGGAACUAAUUUGUAUGCGAAAGUAUAUUGAUUAGUUUUGGAGUACUCGUGGUCG
The procedure, abridged:
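The eight P1ex-region nucleotides of an intron in the knt kanamycin-resistance gene on pET-22b(+) were all randomised and the library put into E. coli BL21(DE3). Six replicate transformations were grown overnight at 37°C or 30°C on LB agar with or without 25 μg/mL kanamycin, together with 100 μg/mL carbenicillin, 50 μM IPTG and 0.2% rhamnose. Colonies were pooled and amplicon-sequenced on an Illumina HiSeq 2500. Fitness from DiMSum is the error-weighted combination of wild-type-normalised replicate fold changes, kanamycin over none.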

± gives the uncertainty stated by the source.

With AUUUAGCAAUAUUACGUAAG, the “self-splicing fitness (ln)” value runs as follows: (30 °C) -2.8 ± 0.18; (37 °C) 0.197 ± 0.18.
For CGAGAGCAAUAUUACGCACG the same measures were -3.55 ± 0.29 and -1.76 ± 0.3.
As for AAUAAGCAAUAUUACGUAUA, the “self-splicing fitness (ln)” value reads like this: (30 °C) -1.76 ± 0.12; (37 °C) -1.56 ± 0.13.
Regarding GGACAGCAAUAUUACGUGAU, the “self-splicing fitness (ln)” value runs as follows: (30 °C) -0.212 ± 0.061; (37 °C) -0.0525 ± 0.078.
With GCUAAGCAAUAUUACGAAGC, the “self-splicing fitness (ln)” value is, setting by setting: (30 °C) -3.24 ± 0.25; (37 °C) -0.413 ± 0.23.
For CCCCAGCAAUAUUACGCUGC the same measures were -3.41 ± 0.17 and -2.06 ± 0.23.
For AUUUAGCAAUAUUACGUAGA the same measures were -2.08 ± 0.15 and -2.48 ± 0.23.
As for GCAUAGCAAUAUUACGGUCA, the “self-splicing fitness (ln)” value by setting is: (30 °C) -0.966 ± 0.09; (37 °C) -0.953 ± 0.096.
For GCUCAGCAAUAUUACGCGUC, the “self-splicing fitness (ln)” value runs as follows: (30 °C) -0.866 ± 0.1; (37 °C) -0.379 ± 0.12.
For ACUCAGCAAUAUUACGACUA the same measures were -0.633 ± 0.12 and -0.128 ± 0.12.
For GUAAAGCAAUAUUACGGGCC, the “self-splicing fitness (ln)” value reads like this: (30 °C) -1.92 ± 0.25; (37 °C) -1.05 ± 0.23.
UUGCAGCAAUAUUACGGCAG: the “self-splicing fitness (ln)” value (30 °C) was -0.754 ± 0.14 and the “self-splicing fitness (ln)” value (37 °C) was -1.27 ± 0.17.
For UCUGAGCAAUAUUACGAAGG the same measures were -3.05 ± 0.21 and -0.953 ± 0.15.
For the sequence CGGCAGCAAUAUUACGUCGU, the “self-splicing fitness (ln)” value is, setting by setting: (30 °C) -3.21 ± 0.2; (37 °C) -2.64 ± 0.21.
In the same order, the values of AUAUAGCAAUAUUACGGUGG are -3.4 ± 0.22 and -2.44 ± 0.25.
In the same order, the values of GACCAGCAAUAUUACGAUCA are -1.38 ± 0.1 and -1.1 ± 0.12.
As to GAGGAGCAAUAUUACGGCGG, the “self-splicing fitness (ln)” value by setting is: (30 °C) -2.33 ± 0.2; (37 °C) -1.7 ± 0.38.
In the case of ACGAAGCAAUAUUACGAGAA, the “self-splicing fitness (ln)” value (30 °C) was -1.6 ± 0.37.
For AUAUAGCAAUAUUACGAACU, the “self-splicing fitness (ln)” value by setting is: (30 °C) -1.38 ± 0.22; (37 °C) 0.111 ± 0.21.
In the same order, the values of CACGAGCAAUAUUACGGCAU are -3.23 ± 0.2 and -3.52 ± 0.33.
In the same order, the values of UUUAAGCAAUAUUACGCAGA are -1.64 ± 0.16 and -1.93 ± 0.14.
For GAUCAGCAAUAUUACGCACG the same measures were -0.77 ± 0.076 and 0.0829 ± 0.077.
For the sequence AGUGAGCAAUAUUACGUGCG, the “self-splicing fitness (ln)” value is, setting by setting: (30 °C) -3.31 ± 0.33; (37 °C) -2.08 ± 0.37.
For CCCCAGCAAUAUUACGAAUG the same measures were -4.11 ± 0.21 and -2.3 ± 0.15.
For GCACAGCAAUAUUACGAAUU the same measures were -1.19 ± 0.077 and -0.471 ± 0.085.
In the same order, the values of CUGGAGCAAUAUUACGUCAC are -2.63 ± 0.39 and -2.53 ± 0.39.
For GCUCAGCAAUAUUACGGCAA, the “self-splicing fitness (ln)” value runs as follows: (30 °C) -1.98 ± 0.16; (37 °C) -1.1 ± 0.17.
For AGAUAGCAAUAUUACGUCGU the same measures were -1.21 ± 0.082 and -0.136 ± 0.099.
In the same order, the values of UUAGAGCAAUAUUACGUGGU are -3.98 ± 0.43 and -2.61 ± 0.39.
For the sequence GGCAAGCAAUAUUACGUAUU, the “self-splicing fitness (ln)” value (30 °C) is -0.415 ± 0.06 and the “self-splicing fitness (ln)” value (37 °C) is -0.183 ± 0.074.
In the same order, the values of GGACAGCAAUAUUACGAGGA are -2.32 ± 0.2 and -1.85 ± 0.16.
Turning to UAAAAGCAAUAUUACGCCUG, the “self-splicing fitness (ln)” value is -0.364 ± 0.088 (30 °C) and 0.229 ± 0.12 (37 °C).
In the same order, the values of ACCGAGCAAUAUUACGUUUG are -2.86 ± 0.13 and -2.19 ± 0.14.

The values are drawn from the supplement of paper PMC7877785.
